Source: the RNAGym collection of RNA variant scans (doi:10.7554/elife.80360)

B1: CPEB3 Ribozyme (parent)
chain: GGGGGCCACAGCAGAAGCGUUCACGUCGCGGCCCCUGUCAGAUUCUGGUGAAUCUGCGAAUUCUGCUGU

Variants of: B1
Assay: self-cleavage, relative activity (ratio to wild type); higher = more cleavage; co-transcriptional

Variant | self-cleavage
G1U G2C | 0.333
G1U G2A | 0.0657
G2C A60G | 0.0533
G2C A60C | 0.0369
G2C A60U | 0.0243
G1U G41A | 0.123
G1U G41U | 0.116
G1U G41C | 0.036
G2A U44C | 0.123
G2C G3C | 0.0247
G2C G3A | 0.055
G2C C9G | 0.123
G2C C9A | 0.0938
G2C G5A | 0.0455
G2C C27A | 0.0594
G2C C27G | 0.106
G1U U21G | 0.0804
G1U U21C | 0.119
G2A U43A | 0.139
G2A U43G | 0.144
G2A U43C | 0.123
G2C C6U | 0.0751
G2C C6G | 0
G2C C6A | 0.0465

Variant | self-cleavage
G2A U26A | 0.11
G2A U26C | 0.114
G2A U26G | 0.0691
G2C G19U | 0.0175
G2C G19C | 0.0249
G2A A60C | 0.0397
G2A G30A | 0.0606
G2A G30C | 0.0605
G2A G30U | 0.058
G2A G3U | 0.0425
G2A G3A | 0.0827
G2A G3C | 0.176
G2C G25C | 0.0473
G2C G25U | 0.0456
G2A A8U | 0.199
G2A A8G | 0.105
G2A U69G | 0.335
G2A U69A | 0.256
G2A C66A | 0.0939
G2A C66G | 0.101
G2A C66U | 0.236
G1U G17U | 0.0803
G2A G58C | 0.106
G2A G58A | 0.0846

Variant | self-cleavage
G2A G58U | 0.221
G2A G50U | 0.173
G2A G50A | 0.177
G2A G50C | 0.154
G1U G58U | 0.137
G1U G58C | 0.128
G2C A10G | 0.0728
G2C A10U | 0.0719
G2C A10C | 0.0373
G2C A15G | 0.0305
G2C A15C | 0.0125
G2C A15U | 0.0423
G2A A40U | 0.0585
G2A G17U | 0.0353
G2A G17A | 0.0268
G2C G14A | 0.0455
G2C G14C | 0.0627
G1U G47A | 0.117
G1U G47U | 0.14
G2A | 0.216
G2C | 0.0678
G2A U38A | 0.134
G2A U38C | 0.117
G2A C29A | 0.0397

Variant | self-cleavage
G2A C29G | 0.0351
G2A C29U | 0.0474
G2C C39U | 0.0154
G1U G30U | 0.0366
G1U G30C | 0.0755
G2A G68C | 0.335
G2A G68A | 0.445
G2A A10C | 0.259
G2A A10G | 0.201
G1U G19A | 0.0502
G2A A13G | 0.129
G2A A13C | 0.109
G2A A59C | 0.0548
G2A A59U | 0.0616
G2A A59G | 0.129
G2A G19U | 0.0445
G2A G19A | 0.0283
G2C A8C | 0.039
G2C A8U | 0.0675
G2A C35A | 0.0641
G2A C35G | 0.0841
G2A C35U | 0.542
G2A C7A | 0.0557
G2A C7U | 0.0501

Variant | self-cleavage
G2A C57A | 0.0762
G2A C57U | 0.0401
G2A C57G | 0.047
G1U U67A | 0.167
G1U U67C | 0.0935
G1U U67G | 0.204
G2C G4C | 0.0427
G2C G4A | 0.0684
G2C G4U | 0.0417
G1U C39U | 0.0961
G1U C39A | 0.123
G2C C66U | 0.0685
G2C C66A | 0.052
G2C G17A | 0.0551
G2C G17C | 0.0475
G2A G65U | 0.067
G2A G65C | 0.122
G2C A23C | 0.0568
G2A G41U | 0.0833
G2A G41A | 0.0631
G2C C24A | 0.0707
G2C C24G | 0.0232
G2C A16G | 0.0604
G2C A16C | 0.0354

Variant | self-cleavage
G2C A16U | 0.0422
G2C C22U | 0.0697
G2C C22A | 0.0368
G2A G28U | 0.0733
G2A G28A | 0.0492
G2A U61C | 0.0999
G2C C32G | 0.0507
G2C C32A | 0.00762
G2C C32U | 0.0415
G2C G31A | 0.0545
G2C G31C | 0.0401
G1U C66A | 0.0594
G1U C66G | 0.0803
G2A G56C | 0.0906
G2A G56A | 0.1
G2A G56U | 0.0991
G2A G37C | 0.0177
G2A G37U | 0.0408
G2A G37A | 0.0498
G2C C18U | 0.0354
G2C C18A | 0.0265
G2C C57U | 0.054
G2C C57G | 0.0289
G2C C57A | 0.036

Variant | self-cleavage
G1U C35U | 0.113
G1U C35A | 0.0801
G2C C54U | 0.0485
G2C C54A | 0.0299
G2A C12G | 0.123
G2A C22U | 0.051
G2A C22G | 0.0504
G1U U53A | 0.0914
G1U U53G | 0.101
G1U U44A | 0.0951
G1U U44C | 0.106
G1U U44G | 0.127
G2C G30A | 0.0388
G2C G30U | 0.0301
G2A C45G | 0.217
G2A C9G | 0.411
G2A C9U | 0.493
G2A C9A | 0.435
G1U U26C | 0.0437
G2A C18U | 0.0628
G2A G48C | 0.227
G2A G48U | 0.215
G2A G48A | 0.213
